According to PMC11259171, “Huntingtin is an RNA binding protein and participates in NEAT1-mediated paraspeckles”:

Target: mHTT-HAP40 Q54 (expanded mutant huntingtin with HAP40) (UniProt P42858;P23610 1-38+=QQQQQQQQQQQQQQQQQQQQQQQQQQQQQQQQQ+39-3142;1-371, internal_change)
Experiment: fluorescence polarization (method implied); 20 mM Hepes pH 7.4, 50 mM KCl, 2 mM MgCl2, 1 mM TCEP, 2.5% glycerol, 0.005% Tween 20; SPR 20 C, EMSA on ice, FP 10 min (temperature not stated)
Conditions: protein: recombinant; copies: 1;1; label: 5'-FAM (FP, EMSA); biotin (SPR)

mHTT-HAP40 Q54 (expanded mutant huntingtin with HAP40), sequence (P42858 other isoform, or with tags, fused parts or gaps | mutant, chain 1 of 2): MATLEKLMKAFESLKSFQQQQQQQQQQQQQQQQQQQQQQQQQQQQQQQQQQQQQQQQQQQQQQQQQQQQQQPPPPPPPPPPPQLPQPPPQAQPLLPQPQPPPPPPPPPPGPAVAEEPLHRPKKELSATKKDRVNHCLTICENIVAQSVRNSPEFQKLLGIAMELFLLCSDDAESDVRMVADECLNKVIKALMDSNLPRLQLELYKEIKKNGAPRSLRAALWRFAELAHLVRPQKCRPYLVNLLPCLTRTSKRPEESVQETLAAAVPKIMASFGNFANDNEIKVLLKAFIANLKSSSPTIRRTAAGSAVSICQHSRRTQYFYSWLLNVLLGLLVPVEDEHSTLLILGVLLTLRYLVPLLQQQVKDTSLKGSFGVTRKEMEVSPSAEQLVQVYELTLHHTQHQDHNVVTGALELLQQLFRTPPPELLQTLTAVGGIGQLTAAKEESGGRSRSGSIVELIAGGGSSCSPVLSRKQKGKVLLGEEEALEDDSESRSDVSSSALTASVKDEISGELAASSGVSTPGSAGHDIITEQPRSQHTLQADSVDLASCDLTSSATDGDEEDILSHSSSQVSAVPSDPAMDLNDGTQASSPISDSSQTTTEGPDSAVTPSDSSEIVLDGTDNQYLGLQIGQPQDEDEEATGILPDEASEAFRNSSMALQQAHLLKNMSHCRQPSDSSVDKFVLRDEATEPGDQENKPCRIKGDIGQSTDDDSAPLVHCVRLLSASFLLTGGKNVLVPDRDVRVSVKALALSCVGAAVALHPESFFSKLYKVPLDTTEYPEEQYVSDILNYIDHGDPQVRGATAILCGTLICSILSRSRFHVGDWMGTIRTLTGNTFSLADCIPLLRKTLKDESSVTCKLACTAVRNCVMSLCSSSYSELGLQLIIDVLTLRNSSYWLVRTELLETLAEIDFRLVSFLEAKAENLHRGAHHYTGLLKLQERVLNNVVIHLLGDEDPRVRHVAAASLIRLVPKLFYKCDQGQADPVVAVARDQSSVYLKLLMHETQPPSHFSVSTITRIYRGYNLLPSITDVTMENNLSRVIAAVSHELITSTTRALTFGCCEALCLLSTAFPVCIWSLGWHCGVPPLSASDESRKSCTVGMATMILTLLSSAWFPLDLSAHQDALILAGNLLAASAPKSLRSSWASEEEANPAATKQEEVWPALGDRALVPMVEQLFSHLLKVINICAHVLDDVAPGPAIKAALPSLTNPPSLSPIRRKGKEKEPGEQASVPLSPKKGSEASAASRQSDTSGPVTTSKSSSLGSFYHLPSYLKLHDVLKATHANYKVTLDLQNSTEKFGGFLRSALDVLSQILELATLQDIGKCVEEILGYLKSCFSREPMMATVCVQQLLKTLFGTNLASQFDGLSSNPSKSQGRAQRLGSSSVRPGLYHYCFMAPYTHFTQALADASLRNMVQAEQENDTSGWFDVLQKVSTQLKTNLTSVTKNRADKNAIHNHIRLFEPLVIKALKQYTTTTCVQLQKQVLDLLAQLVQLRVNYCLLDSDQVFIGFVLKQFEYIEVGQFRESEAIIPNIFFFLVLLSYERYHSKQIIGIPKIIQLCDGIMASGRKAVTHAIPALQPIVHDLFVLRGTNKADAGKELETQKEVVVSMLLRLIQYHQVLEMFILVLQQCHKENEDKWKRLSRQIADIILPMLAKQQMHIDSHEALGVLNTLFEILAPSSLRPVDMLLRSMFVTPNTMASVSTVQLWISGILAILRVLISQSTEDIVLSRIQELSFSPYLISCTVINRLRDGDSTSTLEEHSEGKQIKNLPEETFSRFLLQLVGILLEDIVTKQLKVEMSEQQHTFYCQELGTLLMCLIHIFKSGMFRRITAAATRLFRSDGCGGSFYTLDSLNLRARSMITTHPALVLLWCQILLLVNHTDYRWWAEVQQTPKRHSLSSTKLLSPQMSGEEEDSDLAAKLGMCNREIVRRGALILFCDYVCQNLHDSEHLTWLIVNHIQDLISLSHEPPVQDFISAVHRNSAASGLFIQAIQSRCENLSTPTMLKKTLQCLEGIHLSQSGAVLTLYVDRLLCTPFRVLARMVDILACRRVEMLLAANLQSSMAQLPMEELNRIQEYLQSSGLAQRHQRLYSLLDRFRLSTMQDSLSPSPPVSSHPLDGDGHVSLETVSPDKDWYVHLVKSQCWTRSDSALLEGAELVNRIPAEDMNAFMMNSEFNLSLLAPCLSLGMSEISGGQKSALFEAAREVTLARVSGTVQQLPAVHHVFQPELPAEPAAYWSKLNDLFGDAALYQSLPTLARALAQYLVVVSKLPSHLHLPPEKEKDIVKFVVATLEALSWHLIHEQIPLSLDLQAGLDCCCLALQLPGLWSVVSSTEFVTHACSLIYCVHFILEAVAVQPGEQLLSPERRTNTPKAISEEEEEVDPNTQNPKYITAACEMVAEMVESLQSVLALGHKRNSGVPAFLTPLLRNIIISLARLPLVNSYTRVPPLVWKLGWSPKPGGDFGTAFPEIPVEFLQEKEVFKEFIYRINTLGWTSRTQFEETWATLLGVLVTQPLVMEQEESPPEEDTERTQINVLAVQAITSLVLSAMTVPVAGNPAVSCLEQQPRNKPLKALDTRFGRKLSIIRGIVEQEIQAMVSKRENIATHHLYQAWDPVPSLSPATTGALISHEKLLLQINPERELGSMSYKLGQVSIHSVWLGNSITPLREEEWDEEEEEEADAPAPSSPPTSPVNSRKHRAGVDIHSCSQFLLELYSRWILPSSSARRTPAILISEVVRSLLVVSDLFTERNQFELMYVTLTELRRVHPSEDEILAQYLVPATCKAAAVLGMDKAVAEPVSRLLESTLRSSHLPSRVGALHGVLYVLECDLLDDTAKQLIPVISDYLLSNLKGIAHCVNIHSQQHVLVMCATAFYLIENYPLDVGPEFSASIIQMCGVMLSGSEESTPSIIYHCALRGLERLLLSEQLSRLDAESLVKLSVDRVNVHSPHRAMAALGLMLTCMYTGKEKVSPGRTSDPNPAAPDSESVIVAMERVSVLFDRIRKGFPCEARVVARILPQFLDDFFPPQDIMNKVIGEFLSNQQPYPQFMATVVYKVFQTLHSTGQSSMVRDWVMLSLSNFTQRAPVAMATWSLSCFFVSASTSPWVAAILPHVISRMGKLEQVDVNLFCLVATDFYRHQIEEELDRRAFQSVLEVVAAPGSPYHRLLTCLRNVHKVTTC
mHTT-HAP40 Q54 (expanded mutant huntingtin with HAP40), sequence (P23610 whole entry, change not shown, chain 2 of 2): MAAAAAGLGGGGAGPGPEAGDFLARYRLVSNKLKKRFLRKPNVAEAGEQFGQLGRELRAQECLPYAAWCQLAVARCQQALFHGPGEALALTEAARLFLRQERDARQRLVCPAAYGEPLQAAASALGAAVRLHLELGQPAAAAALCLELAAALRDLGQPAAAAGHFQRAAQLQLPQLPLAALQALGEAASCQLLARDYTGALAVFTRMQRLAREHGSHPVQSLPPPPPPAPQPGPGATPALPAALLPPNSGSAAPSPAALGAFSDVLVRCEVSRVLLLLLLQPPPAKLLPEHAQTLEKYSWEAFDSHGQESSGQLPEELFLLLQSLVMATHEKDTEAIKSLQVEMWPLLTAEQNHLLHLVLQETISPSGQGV

B1: 100-mer random ssRNA (ssRNA)
RNA: CACGUAUGAGAAGGUAUUUGCCCGAUAAUCAAUACCCCAGGCUUCUAACUUUUUCCACUCGCUUGAGCCGGCUAGGCCUUUCUGCCCGAAGUUUCGAUGG
For B1, the Kd was 500 ± 300 nM.
